These results are taken from the nanobody polyreactivity screen of Harvey et al. (2022).

This data set in a line: yeast display, Sf9 membrane polyspecificity reagent, FACS + sequencing; frameworks hold sequencing errors. The method, boiled down: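 Galactose induction of a Saccharomyces cerevisiae BJ5465 synthetic nanobody display library ran 36–48 hours. The cells were then stained for 1 hour at 4 °C with 10% biotinylated, detergent-solubilized Sf9 membrane reagent, pulled down on streptavidin microbeads and FACS-sorted into low and high (top ~1%) gates on expression and reagent-binding fluorescence. Labels for polyreactivity follow the gate of origin.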
As for “QVQLVESGGGLVQAGGSHRLSCAASGLTFTDNAMGRYRQAPGKERELVAAMSRCGGTTYYAASVKGRFTISRDNAKNTVYLQMNSLKPEDTAVYYCNADTYRRLYGNYDYWGQGTQLTVSS”, the “polyreactivity (PSR sort gate)” value is recorded as “high polyreactivity”.

Turning to “QVQLVDSWGGLVQAGASLRLSCAASGNTYSSYAMGWYRKAPGKERELVASITGRGGSTYYSDSVKGRFTISRDNAKNIVYLQMNSLKPEDTAVYYCTAKRFYITDDPLDYFYWGQCTQVTVSS”, the “polyreactivity (PSR sort gate)” value is “high polyreactivity”.

Regarding “QVQLVESGGGLVQAGGSLRLSCAASGRTFGINAMGWYRQAPGKERELVAVISFGDGGTYYADSVKGRFTISRDNAKNTVYLQMNSLKPEDTAVYYCAAAIWYIKLYFVRRTEHGYWGQGTQVTVSS”, the “polyreactivity (PSR sort gate)” value was “low polyreactivity”.

For “QVQLEESGGGLVQAGGSLRLSSAASGIIFGTNAMGWYRQAPGKERELVAGITSSGDSTYYADSVKGRFTISRDNPKNTVYLQMNSLKPEDTAVYYCARDIRTREFDSWGQGTQVTVSS”, the “polyreactivity (PSR sort gate)” value was “low polyreactivity”.

On to “QFQLVESGGGLVQAGGSLRLSCAASGSIFEPYAMGWYRQAPGKETELVATAITYSGGSTYYADSVKGRFTISRDNAKNTVYLQMNSLKPEDTAVYYCAADDWGDGVYKLDYWGQGTQVTVSS”, for which the “polyreactivity (PSR sort gate)” value is listed as “low polyreactivity”.

In the case of “QVQLVESGGGLVQAGGSLSLSCAASGFTFEKNAMGWYRQAPGKERELVAAITSGGSTYYADSVKGRFTISRDNAKNTVYLQMNSLKPEDTAVYYCNAYYTYRFNYWGQGTQVTVSS”, the “polyreactivity (PSR sort gate)” value is “high polyreactivity”.

On to “QVQLVESGGGLDQAGGSLRLSCAASGSIFPFYAMGWYRQAPGKERELVAAISDRGGSTYYADSVKGRFTISRDNAKNSVYLQMNSLKPEATAVYYCAKGGEVSQGYTDEYDYWGQGTQVTVSS”, for which the “polyreactivity (PSR sort gate)” value is listed as “low polyreactivity”.

In the case of “QVQLQESGGGLVQAGGCLRLSCAASGSIFDPDYMGWYHQAPGKESELVASISLGRITYYADSVKGRFTINRDNAKNTVYLQMNSLKPEDTAVYYCAVRVETIYYYSYWGQGTQVTVSS”, the “polyreactivity (PSR sort gate)” value is “high polyreactivity”.

On to “QVQLVESGGGLVQAGGSLRLSCAASGSIITYYAMGWYRQAPGKERELVAAISSGGSTYYADSVKGRFTISRDNAKSTVYLQMNRLKPEDSAVYYCNADLLDYWSFILFDYWGQGSQVTVSS”, for which the “polyreactivity (PSR sort gate)” value was “high polyreactivity”.

As for “QVQLVESGGGLVQAGGSLRLSCAASGRIFYYNTMGWYRQAPGKERELVARITQRGGRTYYADSVKGRFTISRDYAKNTVYLQMNSLKPVDTAVYYFNAKVRGTNTAGVDYWGQGTQVTVSS”, the “polyreactivity (PSR sort gate)” value is “high polyreactivity”.

Turning to “QVQLVESGGGLVQAGASLRLSCAASGRIFSFYAMGWYRQAPGKERELVAAISSGGNTYYADSVKGRFTISRDNAKNTVYLQMNSLKPEDTAVYYCATGYRKLSSRYGYWGQGTQVTVSS”, the “polyreactivity (PSR sort gate)” value is on record as “high polyreactivity”.

For “QVQLVESGGGLVQAGGSLRLSCAASGSTFTPYAMGWYRQAPGKERELVASITIGGSTYADSVKGRFTISRDNAKNTVYLQMNSLKPEDTAVYSCNADWNWYPFLYSRMDYWGQGTQVTVSS”, the “polyreactivity (PSR sort gate)” value was “low polyreactivity”.

“QVQLEESGGGLVQAGGSLRLSCAASGRTFTHYAMGWYRQAPGRERELVAGITRSGGITYYADSVKGRFTISRDNANNTVYLQMNSLKPEDTAVYYCNAGFHGLAYFLKPEYDYWGQGTQVTVSS”: the “polyreactivity (PSR sort gate)” value is recorded as “low polyreactivity”.

As to “QVHLVESGGGLDQAGGSLRLSCAASGIIFFKNAMGWYRPAPGKERELVAAISSTDTRTYYADSVKGRFTISRDNAKNTVYLQKNSLKPEDTAVYYCAADYIYYYEQYLWYTYDYWGQGTQVTLSS”, the “polyreactivity (PSR sort gate)” value is “high polyreactivity”.

Regarding “QVQLVESGGGLVQAGGSLRLSCAASGRIFRLYAMGWYRQAPGKERELVAAITSSGSSTYYADSVKGRFTISRDNAKNTVSLQMNSLKPEDTAVYYCNARYTYPYHFGYWGQGTQVTVSS”, the “polyreactivity (PSR sort gate)” value was “high polyreactivity”.

As for “QVQLVESGGGLVQAGGSLRLSCAASGRIFRRNTMGWYRQAPGIERELVAAITSSGGSTYADSVKGRFTISRDNAKNTVYLQMNSLKPEDTAVYYCATYVAYHRGYRTYDHWGQGTQVTVSS”, the “polyreactivity (PSR sort gate)” value is “low polyreactivity”.
